From PMC6269477 come the findings set out here.

Test [1] concerns the target PBP1B (untagged, purified) (E. coli) (UniProt P02919).
The target of test [2] is PBP1A (untagged, purified) (E. coli) (UniProt P02918).
Sequence of PBP1A (untagged, purified) (E. coli) (P02918 whole entry): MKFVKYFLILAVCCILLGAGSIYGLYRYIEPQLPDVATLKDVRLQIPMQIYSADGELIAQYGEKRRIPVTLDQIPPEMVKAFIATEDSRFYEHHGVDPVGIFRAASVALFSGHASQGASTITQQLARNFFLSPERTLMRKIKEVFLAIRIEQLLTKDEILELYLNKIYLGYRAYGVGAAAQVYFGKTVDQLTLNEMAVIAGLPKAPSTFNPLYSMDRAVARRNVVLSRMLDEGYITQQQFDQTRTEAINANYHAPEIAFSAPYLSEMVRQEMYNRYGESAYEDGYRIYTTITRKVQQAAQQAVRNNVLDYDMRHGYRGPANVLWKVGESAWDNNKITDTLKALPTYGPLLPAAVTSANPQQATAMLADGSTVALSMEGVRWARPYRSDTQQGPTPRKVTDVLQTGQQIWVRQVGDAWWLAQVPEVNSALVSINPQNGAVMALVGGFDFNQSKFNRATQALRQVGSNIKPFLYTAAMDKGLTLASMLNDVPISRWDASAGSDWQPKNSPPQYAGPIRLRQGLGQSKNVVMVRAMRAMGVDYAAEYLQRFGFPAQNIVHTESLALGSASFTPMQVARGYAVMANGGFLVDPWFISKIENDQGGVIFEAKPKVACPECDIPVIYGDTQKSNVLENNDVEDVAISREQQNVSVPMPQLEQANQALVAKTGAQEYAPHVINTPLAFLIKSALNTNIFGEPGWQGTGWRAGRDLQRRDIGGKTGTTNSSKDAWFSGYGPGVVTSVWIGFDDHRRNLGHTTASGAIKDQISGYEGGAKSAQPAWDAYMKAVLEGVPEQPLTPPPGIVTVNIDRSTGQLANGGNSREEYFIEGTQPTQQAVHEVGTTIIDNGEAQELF

Sequence of PBP1B (untagged, purified) (E. coli) (P02919 46-844 limits assumed): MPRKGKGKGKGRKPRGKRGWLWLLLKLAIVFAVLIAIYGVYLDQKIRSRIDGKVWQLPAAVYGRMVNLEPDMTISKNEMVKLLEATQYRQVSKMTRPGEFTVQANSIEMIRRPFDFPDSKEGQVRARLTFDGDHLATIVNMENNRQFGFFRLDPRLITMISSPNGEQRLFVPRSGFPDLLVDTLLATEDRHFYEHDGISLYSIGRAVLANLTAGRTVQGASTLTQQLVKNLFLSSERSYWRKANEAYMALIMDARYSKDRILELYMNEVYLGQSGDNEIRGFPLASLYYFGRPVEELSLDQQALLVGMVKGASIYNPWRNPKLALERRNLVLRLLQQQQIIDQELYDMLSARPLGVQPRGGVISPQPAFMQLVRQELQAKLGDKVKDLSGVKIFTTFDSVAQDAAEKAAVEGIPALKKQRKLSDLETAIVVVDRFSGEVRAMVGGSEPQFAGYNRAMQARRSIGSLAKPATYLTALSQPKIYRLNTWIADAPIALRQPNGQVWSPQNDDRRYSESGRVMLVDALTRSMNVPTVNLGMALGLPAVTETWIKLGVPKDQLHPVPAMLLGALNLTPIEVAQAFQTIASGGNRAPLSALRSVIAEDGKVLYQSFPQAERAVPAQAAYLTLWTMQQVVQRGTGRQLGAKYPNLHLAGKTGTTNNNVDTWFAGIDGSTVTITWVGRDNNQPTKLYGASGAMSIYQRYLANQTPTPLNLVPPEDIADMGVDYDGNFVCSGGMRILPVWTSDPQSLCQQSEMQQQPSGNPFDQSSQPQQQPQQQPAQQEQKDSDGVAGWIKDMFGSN

For “ZipA (untagged, oligohistidine tag removed by thrombin) (from UniProt P77173 1-328) (natural protein)”, in test [1], the GTase rate of PBP1B (consumption of dansylated lipid II), normalised to PBP1B alone, with ZipA is 1.4 fold; the GTase rate of PBP1B, normalised to PBP1B alone, with ZipA and FtsN together was determined as 3 fold. In test [2], this substance displayed a GTase rate of PBP1A (consumption of dansylated lipid II), normalised to PBP1A alone, with ZipA of 2.6 fold; a GTase rate of PBP1A, normalised to PBP1A alone, with ZipA and FtsN together of 3.4 fold.

“FtsN-His (from UniProt P29131 1-319) (natural protein)” displayed a GTase rate of PBP1B (consumption of dansylated lipid II), normalised to PBP1B alone, with FtsN in test [1] of 2.6 fold. This substance returned a GTase rate of PBP1A (consumption of dansylated lipid II), normalised to PBP1A alone, with FtsN in test [2] of 1.3 fold.
